Measurements from PMC9531584 (Nature structural & molecular biology, 2022).

B1: Torpedo californica muscle-type nicotinic acetylcholine receptor β subunit (natural protein, UniProt P02712 25-493, looked up)
chain: SVMEDTLLSVLFETYNPKVRPAQTVGDKVTVRVGLTLTNLLILNEKIEEMTTNVFLNLAWTDYRLQWDPAAYEGIKDLRIPSSDVWQPDIVLMNNNDGSFEITLHVNVLVQHTGAVSWQPSAIYRSSCTIKVMYFPFDWQNCTMVFKSYTYDTSEVTLQHALDAKGEREVKEIVINKDAFTENGQWSIEHKPSRKNWRSDDPSYEDVTFYLIIQRKPLFYIVYTIIPCILISILAILVFYLPPDAGEKMSLSISALLAVTVFLLLLADKVPETSLSVPIIIRYLMFIMILVAFSVILSVVVLNLHHRSPNTHTMPNWIRQIFIETLPPFLWIQRPVTTPSPDSKPTIISRANDEYFIRKPAGDFVCPVDNARVAVQPERLFSEMKWHLNGLTQPVTLPQDLKEAVEAIKYIAEQLESASEFDDLKKDWQYVAMVADRLFLYVFFVICSIGTFSIFLDASHNVPPDNPFA
B2: Torpedo californica muscle-type nicotinic acetylcholine receptor α subunit (natural protein, UniProt P02710 25-461, looked up)
chain: SEHETRLVANLLENYNKVIRPVEHHTHFVDITVGLQLIQLISVDEVNQIVETNVRLRQQWIDVRLRWNPADYGGIKKIRLPSDDVWLPDLVLYNNADGDFAIVHMTKLLLDYTGKIMWTPPAIFKSYCEIIVTHFPFDQQNCTMKLGIWTYDGTKVSISPESDRPDLSTFMESGEWVMKDYRGWKHWVYYTCCPDTPYLDITYHFIMQRIPLYFVVNVIIPCLLFSFLTGLVFYLPTDSGEKMTLSISVLLSLTVFLLVIVELIPSTSSAVPLIGKYMLFTMIFVISSIIITVVVINTHHRSPSTHTMPQWVRKIFIDTIPNVMFFSTMKRASKEKQENKIFADDIDISDISGKQVTGEVIFQTPLIKNPDVKSAIEGVKYIAEHMKSDEESSNAAEEWKYVAMVIDHILLCVFMLICIIGTVSVFAGRLIELSQEG

Legend:
[1] = biological target: T1, Torpedo californica muscle-type nicotinic acetylcholine receptor δ subunit (Torpedo californica (Tetronarce …, UniProt P02718 22-522)); assay: cryo-EM structure
T1 sequence (looked up): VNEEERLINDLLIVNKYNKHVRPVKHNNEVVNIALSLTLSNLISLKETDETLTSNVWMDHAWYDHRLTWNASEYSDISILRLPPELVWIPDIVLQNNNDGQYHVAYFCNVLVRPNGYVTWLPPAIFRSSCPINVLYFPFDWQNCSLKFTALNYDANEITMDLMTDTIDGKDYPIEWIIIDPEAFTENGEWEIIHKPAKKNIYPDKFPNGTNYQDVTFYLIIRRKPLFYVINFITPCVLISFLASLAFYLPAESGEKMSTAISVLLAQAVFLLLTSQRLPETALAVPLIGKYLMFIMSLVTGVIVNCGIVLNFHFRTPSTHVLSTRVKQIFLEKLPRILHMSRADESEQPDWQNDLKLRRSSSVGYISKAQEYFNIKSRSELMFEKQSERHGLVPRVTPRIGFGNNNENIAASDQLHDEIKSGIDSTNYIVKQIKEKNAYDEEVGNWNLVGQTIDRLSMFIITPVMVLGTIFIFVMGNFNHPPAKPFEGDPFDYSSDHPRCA

[2] = biological target: B1; assay: cryo-EM structure

Row | Binder | binding result [1] | binding result [2]
1 | B1 | binds | 
2 | B2 |  | binds
